Experimental data published in paper PMC6555819, “Comprehensive study of nuclear receptor DNA binding provides a revised framework for understanding receptor specificity”.

Target: PPARg:RXRa (Homo sapiens, UniProt P37231;P19793 full;full)
Experiment: no ligand; PBM; 180 nM : 90 nM RXRa; PBS pH 7.4, 2% milk, 0.02% Triton X-100, 1 mM DTT, BSA, 0.4 mg/ml salmon testes DNA
Details: tags: His kept;His cleaved; copies: 1;1; label: surface-attached array probe

Chain of PPARg:RXRa (P37231 29-505, chain 1 of 2): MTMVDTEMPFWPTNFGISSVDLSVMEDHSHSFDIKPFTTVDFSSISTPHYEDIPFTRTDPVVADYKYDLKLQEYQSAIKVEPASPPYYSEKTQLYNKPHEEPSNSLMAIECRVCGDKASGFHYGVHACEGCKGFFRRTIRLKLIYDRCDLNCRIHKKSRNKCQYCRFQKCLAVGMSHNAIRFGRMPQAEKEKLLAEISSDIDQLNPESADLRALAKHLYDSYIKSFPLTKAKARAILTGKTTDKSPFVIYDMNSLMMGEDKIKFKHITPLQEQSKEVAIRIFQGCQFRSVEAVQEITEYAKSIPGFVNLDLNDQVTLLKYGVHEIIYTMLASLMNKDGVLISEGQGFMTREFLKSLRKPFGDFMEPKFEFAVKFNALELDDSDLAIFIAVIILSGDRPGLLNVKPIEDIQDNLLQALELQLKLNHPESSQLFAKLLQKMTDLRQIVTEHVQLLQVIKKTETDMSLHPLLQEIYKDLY
Chain of PPARg:RXRa (P19793 whole entry, chain 2 of 2): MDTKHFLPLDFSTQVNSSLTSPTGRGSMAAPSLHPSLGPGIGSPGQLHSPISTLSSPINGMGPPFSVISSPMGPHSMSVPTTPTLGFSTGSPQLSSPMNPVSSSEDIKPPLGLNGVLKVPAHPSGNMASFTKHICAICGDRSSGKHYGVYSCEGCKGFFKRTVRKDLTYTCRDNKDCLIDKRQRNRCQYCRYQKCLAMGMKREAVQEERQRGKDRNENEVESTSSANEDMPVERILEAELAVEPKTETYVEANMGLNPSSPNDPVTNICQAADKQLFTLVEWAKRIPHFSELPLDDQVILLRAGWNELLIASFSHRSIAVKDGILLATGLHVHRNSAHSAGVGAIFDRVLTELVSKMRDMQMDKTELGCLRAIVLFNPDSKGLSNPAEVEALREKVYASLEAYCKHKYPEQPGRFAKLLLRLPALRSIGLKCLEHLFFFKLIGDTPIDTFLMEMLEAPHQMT

Row | Binder | binding signal
1 | NRC3_wobSeed36_DR1_C4G_o1 (dsDNA) DNA 1: GCCGGACTGGGGCAAAGGTTACCATACTCAGTACGAGCGATTGACAGCGTAGAATGAAGG DNA 2: CCTTCATTCTACGCTGTCAATCGCTCGTACTGAGTATGGTAACCTTTGCCCCAGTCCGGC | 12.2 PBM z-score against 500 random probes
2 | NRC3_wobSeed36_DR1_C23G_o1 (dsDNA) DNA 1: GCCCGACTGGGGCAAAGGTTACGATACTCAGTACGAGCGATTGACAGCGTAGAATGAAGG DNA 2: CCTTCATTCTACGCTGTCAATCGCTCGTACTGAGTATCGTAACCTTTGCCCCAGTCGGGC | 12.2 PBM z-score against 500 random probes
3 | NRC3_wobSeed36_DR1_G5C_o1 (dsDNA) DNA 1: GCCCCACTGGGGCAAAGGTTACCATACTCAGTACGAGCGATTGACAGCGTAGAATGAAGG DNA 2: CCTTCATTCTACGCTGTCAATCGCTCGTACTGAGTATGGTAACCTTTGCCCCAGTGGGGC | 12.2 PBM z-score against 500 random probes
4 | NRC3_wobSeed72_DR2_G11C_o1 (dsDNA) DNA 1: GCTCGAGTAGCTTACGGGGGCATTCAGGGATGAAGAGCGATTGACAGCGTAGAATGAAGG DNA 2: CCTTCATTCTACGCTGTCAATCGCTCTTCATCCCTGAATGCCCCCGTAAGCTACTCGAGC | 0.35 PBM z-score against 500 random probes
5 | NRC3_random_hg19_481_o1 (dsDNA) DNA 1: GCCCTTCTTAGTATCTGGGACAACAGGTGTGTGCTAGCGATTGACAGCGTAGAATGAAGG DNA 2: CCTTCATTCTACGCTGTCAATCGCTAGCACACACCTGTTGTCCCAGATACTAAGAAGGGC | 0.31 PBM z-score against 500 random probes
6 | NRC3_wobSeed13_DR0_G10C_o1 (dsDNA) DNA 1: GCCGTCCAACGTCAAGGTCAGTGAAAGAGACTCGAAGCGATTGACAGCGTAGAATGAAGG DNA 2: CCTTCATTCTACGCTGTCAATCGCTTCGAGTCTCTTTCACTGACCTTGACGTTGGACGGC | 0.38 PBM z-score against 500 random probes
7 | NRC3_random_hg19_131_o1 (dsDNA) DNA 1: GCTCCCTCAAGCTCTCTGAATCTCAGAGTCAGCATCGCGATTGACAGCGTAGAATGAAGG DNA 2: CCTTCATTCTACGCTGTCAATCGCGATGCTGACTCTGAGATTCAGAGAGCTTGAGGGAGC | -0.66 PBM z-score against 500 random probes
8 | NRC3_random_hg19_493_o1 (dsDNA) DNA 1: GCGCCTAGCAGTCTATACAATTCTGAAGGATGCACCGCGATTGACAGCGTAGAATGAAGG DNA 2: CCTTCATTCTACGCTGTCAATCGCGGTGCATCCTTCAGAATTGTATAGACTGCTAGGCGC | 0.38 PBM z-score against 500 random probes
9 | NRC3_wobSeed38_DR1_T12A_o1 (dsDNA) DNA 1: GCCCTGCTAGGACAATGGTCAGCTAAAGCAGCTCGCGCGATTGACAGCGTAGAATGAAGG DNA 2: CCTTCATTCTACGCTGTCAATCGCGCGAGCTGCTTTAGCTGACCATTGTCCTAGCAGGGC | 0.3 PBM z-score against 500 random probes
10 | NRC3_wobSeed32_DR1_G18C_o1 (dsDNA) DNA 1: GCTCTTGTAGATCAAAGCTTAAGAAAGCCGAAGCCTGCGATTGACAGCGTAGAATGAAGG DNA 2: CCTTCATTCTACGCTGTCAATCGCAGGCTTCGGCTTTCTTAAGCTTTGATCTACAAGAGC | -0.29 PBM z-score against 500 random probes
11 | NRC3_random_hg19_211_o1 (dsDNA) DNA 1: GCATCACTATTCCCAACTTCAGGAGTAACCAGTATTGCGATTGACAGCGTAGAATGAAGG DNA 2: CCTTCATTCTACGCTGTCAATCGCAATACTGGTTACTCCTGAAGTTGGGAATAGTGATGC | 0.12 PBM z-score against 500 random probes
12 | NRC3_random_hg19_164_o1 (dsDNA) DNA 1: GCCATGAGGACCTGCAGCGCAATGACCTCCGAGGCAGCGATTGACAGCGTAGAATGAAGG DNA 2: CCTTCATTCTACGCTGTCAATCGCTGCCTCGGAGGTCATTGCGCTGCAGGTCCTCATGGC | 0.42 PBM z-score against 500 random probes
13 | NRC3_random_hg19_118_o1 (dsDNA) DNA 1: GCTTGTCACTTGTCATTCCTGCCAAGAGAGCTCTATGCGATTGACAGCGTAGAATGAAGG DNA 2: CCTTCATTCTACGCTGTCAATCGCATAGAGCTCTCTTGGCAGGAATGACAAGTGACAAGC | -0.38 PBM z-score against 500 random probes
14 | NRC3_random_hg19_181_o1 (dsDNA) DNA 1: GCGCAGCATTTGTGTGCATGTATGCTGTGTGTATGCGCGATTGACAGCGTAGAATGAAGG DNA 2: CCTTCATTCTACGCTGTCAATCGCGCATACACACAGCATACATGCACACAAATGCTGCGC | -0.13 PBM z-score against 500 random probes
15 | NRC3_wobSeed50_DR2_A22C_o1 (dsDNA) DNA 1: GCCCTAGTTGGTCAGGAGGTCCCACACCGGATATGAGCGATTGACAGCGTAGAATGAAGG DNA 2: CCTTCATTCTACGCTGTCAATCGCTCATATCCGGTGTGGGACCTCCTGACCAACTAGGGC | 0.46 PBM z-score against 500 random probes
16 | NRC3_wobSeed76_DR3_A18C_o1 (dsDNA) DNA 1: GCCCTACTGGGCCAAAACGGTCATTGATGCCGATAAGCGATTGACAGCGTAGAATGAAGG DNA 2: CCTTCATTCTACGCTGTCAATCGCTTATCGGCATCAATGACCGTTTTGGCCCAGTAGGGC | 0.35 PBM z-score against 500 random probes
17 | NRC3_wobSeed29_DR1_T5A_o1 (dsDNA) DNA 1: GCGCATACGGGTCAAAGGTTATAGCATGAATAGAATGCGATTGACAGCGTAGAATGAAGG DNA 2: CCTTCATTCTACGCTGTCAATCGCATTCTATTCATGCTATAACCTTTGACCCGTATGCGC | 12.2 PBM z-score against 500 random probes

Row | Binder | binding signal
18 | NRC3_random_hg19_220_o1 (dsDNA) DNA 1: GCTTGGTTGCAAGCAATACAAAGCAACTCTTGCTAAGCGATTGACAGCGTAGAATGAAGG DNA 2: CCTTCATTCTACGCTGTCAATCGCTTAGCAAGAGTTGCTTTGTATTGCTTGCAACCAAGC | -0.18 PBM z-score against 500 random probes
19 | NRC3_wobSeed33_DR1_A16T_o1 (dsDNA) DNA 1: GCATCTCTAGGTAAATGTTCAGTGAATCCCGAGGATGCGATTGACAGCGTAGAATGAAGG DNA 2: CCTTCATTCTACGCTGTCAATCGCATCCTCGGGATTCACTGAACATTTACCTAGAGATGC | 0.4 PBM z-score against 500 random probes
20 | NRC3_wobSeed63_DR2_G11C_o1 (dsDNA) DNA 1: GCCGAACTAGCTCACCAGGACAGTGAAGAGGTTGGAGCGATTGACAGCGTAGAATGAAGG DNA 2: CCTTCATTCTACGCTGTCAATCGCTCCAACCTCTTCACTGTCCTGGTGAGCTAGTTCGGC | 0.17 PBM z-score against 500 random probes
21 | NRC3_random_hg19_85_o1 (dsDNA) DNA 1: GCTGGCTGGCACCTGTGTTCCAACAACTTGAGAGAGGCGATTGACAGCGTAGAATGAAGG DNA 2: CCTTCATTCTACGCTGTCAATCGCCTCTCTCAAGTTGTTGGAACACAGGTGCCAGCCAGC | -0.09 PBM z-score against 500 random probes
22 | NRC3_wobSeed135_DR5_A14C_o1 (dsDNA) DNA 1: GCCGAACTAGGTCCTTGACAGGACAGTGAATAGTAAGCGATTGACAGCGTAGAATGAAGG DNA 2: CCTTCATTCTACGCTGTCAATCGCTTACTATTCACTGTCCTGTCAAGGACCTAGTTCGGC | 0.43 PBM z-score against 500 random probes
23 | NRC3_random_hg19_453_o1 (dsDNA) DNA 1: GCATGATCATGGCTCACTGCAGCCTCGACCTCCAGAGCGATTGACAGCGTAGAATGAAGG DNA 2: CCTTCATTCTACGCTGTCAATCGCTCTGGAGGTCGAGGCTGCAGTGAGCCATGATCATGC | 0.09 PBM z-score against 500 random probes
24 | NRC3_random_hg19_11_o1 (dsDNA) DNA 1: GCTGAGTCAGAACCACCCAGCTAAGCCACCATCAAAGCGATTGACAGCGTAGAATGAAGG DNA 2: CCTTCATTCTACGCTGTCAATCGCTTTGATGGTGGCTTAGCTGGGTGGTTCTGACTCAGC | -0.05 PBM z-score against 500 random probes
25 | NRC3_random_hg19_305_o1 (dsDNA) DNA 1: GCGACTGCACTCCAGCCTGGGCAATAGAGTGAGACTGCGATTGACAGCGTAGAATGAAGG DNA 2: CCTTCATTCTACGCTGTCAATCGCAGTCTCACTCTATTGCCCAGGCTGGAGTGCAGTCGC | -0.27 PBM z-score against 500 random probes
26 | NRC3_random_hg19_88_o1 (dsDNA) DNA 1: GCAGATTGCTGGCCAACTGCTCCTGATCCATTACTAGCGATTGACAGCGTAGAATGAAGG DNA 2: CCTTCATTCTACGCTGTCAATCGCTAGTAATGGATCAGGAGCAGTTGGCCAGCAATCTGC | -0.23 PBM z-score against 500 random probes
27 | NRC3_wobSeed41_DR1_T23G_o1 (dsDNA) DNA 1: GCATATGTAGGTTAAGGGTCATGCAGGTTGGTTCGCGCGATTGACAGCGTAGAATGAAGG DNA 2: CCTTCATTCTACGCTGTCAATCGCGCGAACCAACCTGCATGACCCTTAACCTACATATGC | 12.4 PBM z-score against 500 random probes
28 | NRC3_random_hg19_81_o1 (dsDNA) DNA 1: GCGACTTTGTTGCCTAGGCTGGAATCTATCATGGCTGCGATTGACAGCGTAGAATGAAGG DNA 2: CCTTCATTCTACGCTGTCAATCGCAGCCATGATAGATTCCAGCCTAGGCAACAAAGTCGC | -0.16 PBM z-score against 500 random probes
29 | NRC3_wobSeed4_DR0_G17C_o1 (dsDNA) DNA 1: GCCCTACTGGGCCAAGCTCATTGATCAGTCAAAGCAGCGATTGACAGCGTAGAATGAAGG DNA 2: CCTTCATTCTACGCTGTCAATCGCTGCTTTGACTGATCAATGAGCTTGGCCCAGTAGGGC | 0.05 PBM z-score against 500 random probes
30 | NRC3_wobSeed25_DR1_A23G_o1 (dsDNA) DNA 1: GCCAAACTAGGTCAAAGGTCAAGGTCGAGCCAACCAGCGATTGACAGCGTAGAATGAAGG DNA 2: CCTTCATTCTACGCTGTCAATCGCTGGTTGGCTCGACCTTGACCTTTGACCTAGTTTGGC | 14.4 PBM z-score against 500 random probes
31 | NRC3_random_hg19_235_o1 (dsDNA) DNA 1: GCGCTGGGAGGCAACTGCCATTGGCATGCCATGCCAGCGATTGACAGCGTAGAATGAAGG DNA 2: CCTTCATTCTACGCTGTCAATCGCTGGCATGGCATGCCAATGGCAGTTGCCTCCCAGCGC | -0.53 PBM z-score against 500 random probes
32 | NRC3_random_hg19_333_o1 (dsDNA) DNA 1: GCATGCCTGTAATCCCAGCTACTTGGGAGGCTGAGAGCGATTGACAGCGTAGAATGAAGG DNA 2: CCTTCATTCTACGCTGTCAATCGCTCTCAGCCTCCCAAGTAGCTGGGATTACAGGCATGC | -0.21 PBM z-score against 500 random probes
33 | NRC3_wobSeed64_DR2_C13G_o1 (dsDNA) DNA 1: GCTAGCCTAGGTGATTGGGCCAGTATAGTACGCATCGCGATTGACAGCGTAGAATGAAGG DNA 2: CCTTCATTCTACGCTGTCAATCGCGATGCGTACTATACTGGCCCAATCACCTAGGCTAGC | 0.42 PBM z-score against 500 random probes
